Experimental data reported in patent US20180022779.

B1: human CytB5R3 (endogenous, vascular cell co-culture and human coronary ECs) (protein)
chain: GAQLSTLGHMVLFPVWFLYSLLMKLFQRSTPAITLESPDIKYPLRLIDREIISHDTRRFRFALPSPQHILGLPVGQHIYLSARIDGNLVVRPYTPISSDDDKGFVDLVIKVYFKDTHPKFPAGGKMSQYLESMQIGDTIEFRGPSGLLVYQGKGKFAIRPDKKSNPIIRTVKSVGMIAGGTGITPMLQVIRAIMKDPDDHTVCHLLFANQTEKDILLRPELEELRNKHSARFKLWYTLDRAPEAWDYGQGFVNEEMIRDHLPPPEEEPLVLMCGPPPMIQYACLPNLDHVGHPTERCFVF
B2: FLAG-tagged CytB5R3 (Origene) (protein)
chain: B1 chain

Biological target: purified Hb α chains (isolated from lyophilized hemoglobin, Sigma), P69905
Sequence (P69905 2-142): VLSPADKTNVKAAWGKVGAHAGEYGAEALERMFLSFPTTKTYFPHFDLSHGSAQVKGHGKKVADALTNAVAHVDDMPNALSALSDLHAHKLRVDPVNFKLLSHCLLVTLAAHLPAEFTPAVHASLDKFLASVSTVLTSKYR

| Protein | met-Hb α reduction, time lapse UV-visible spectrometry of EC lysates mixed with purified Hb α chains and NADH | met-Hb α reduction, time lapse UV-visible spectrometry of lysates of ECs transfected with CytB5R3-Flag, mixed with purified Hb α chains and NADH |
| --- | --- | --- |
| B1 | loss of CytB5R3 inhibited metHb α reduction |  |
| B2 |  | overexpression enhanced metHb α reduction |
